According to patent US20260242478A1 (published 2026):
Where no end group is shown, it is not given here.

Key:
[1] = biological target: T1, Anti-CD28 Fab (SEQ ID NOs: 696, 697); test: phage binding ELISA; clonal phage on plate-captured biotinylated anti-CD28 Fab, anti-M13 HRP detection
T1 construct: In the phage ELISA the Fab was biotinylated and captured on neutravidin coated plates
T1 sequence (VH, as listed by the source, chain 1 of 2): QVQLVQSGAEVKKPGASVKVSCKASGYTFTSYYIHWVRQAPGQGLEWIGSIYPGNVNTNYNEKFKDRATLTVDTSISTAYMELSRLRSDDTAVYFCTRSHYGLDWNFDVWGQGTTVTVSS
T1 sequence (VL, as listed by the source, chain 2 of 2): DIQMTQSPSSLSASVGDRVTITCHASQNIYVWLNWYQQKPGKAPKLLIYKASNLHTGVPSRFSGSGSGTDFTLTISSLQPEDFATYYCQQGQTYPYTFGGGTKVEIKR
Experimental: (§1) After panning, phage infected bacteria were plated out and colonies picked into 96 well blocks. Clonal phage was then amplified and separated from bacterial cells via centrifugation.
(§2) Clonal phage were harvested as crude supematants and screened via standard ELISAs. […] Prior to the addition of clonal phage, wells were incubated with blocking buffer and CD28 antigen or blocking buffer alone. Without washing or aspirating, clonal phage supematants were then added to the wells and incubated for a short time. Wells were then washed followed by detection of bound phage using a horse radish conjugated anti-M13 antibody. Clonal phage of interest were then sent for sequence analysis.

[2] = biological target: T1, Anti-CD28 Fab (SEQ ID NOs: 696, 697); test: phage binding ELISA on plate-captured anti-CD28 Fab pre-incubated with CD28 antigen as competitor
Experimental: as §1, §2

[3] = biological target: T2, Anti-CD28 Fab (SEQ ID NOs: 696, 697); test: phage binding ELISA on captured anti-CD28 Fab; competitor: CD28 antigen at saturating concentration
T2 construct: Biotinylated and captured on neutravidin coated plates in the phage ELISA
T2 sequence (VH, as listed by the source, chain 1 of 2): as the sequence (VH, as listed by the source, chain 1 of 2) above
T2 sequence (VL, as listed by the source, chain 2 of 2): as the sequence (VL, as listed by the source, chain 2 of 2) above
Experimental: as §1, §2

[4] = biological target: T2, Anti-CD28 Fab (SEQ ID NOs: 696, 697); test: phage binding ELISA; biotinylated anti-CD28 Fab on neutravidin plate, bound phage detected with anti-M13 HRP;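 also: crude supernatants of clonal phage screened, wells pretreated with blocking buffer with or without CD28 antigen before brief phage incubation, washed, then bound phage detected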
Experimental: as §1, §2

[5] = biological target: T3, Anti-CD28 Fab (SEQ ID NOs: 696, 697); test: phage ELISA; biotinylated anti-CD28 Fab on neutravidin plate, clonal phage supernatant, anti-M13 HRP
T3 construct: Biotinylated and captured on neutravidin coated plates in the phage ELISA
T3 sequence (VH, as listed by the source, chain 1 of 2): as the sequence (VH, as listed by the source, chain 1 of 2) above
T3 sequence (VL, as listed by the source, chain 2 of 2): as the sequence (VL, as listed by the source, chain 2 of 2) above
Experimental: as §1, §2

[6] = biological target: T3, Anti-CD28 Fab (SEQ ID NOs: 696, 697); test: phage ELISA; Fab-coated wells first incubated with CD28 antigen (competitor), then clonal phage, anti-M13 HRP
Experimental: as §1, §2

B1: Phage-1228 (peptide)
peptide: YCDGHSKEYMSKCL
modifications: cysteine pairing not given here; also: displayed on phage by fusion to pIII, linker and pIII sequence not given here
notes: Tested as clonal phage supernatant
Anti-CD28 Fab signal (phage binding ELISA) [1]: 0.96
Anti-CD28 Fab signal in the presence of CD28 (phage binding ELISA) [2]: 0.07

B2: Phage-1226 (peptide)
peptide: YCQGHFPQYMAKCL
modifications: cysteine pairing not given here; also: displayed on phage by fusion to pIII, linker and pIII sequence not given here
notes: as for B1
Anti-CD28 Fab signal (phage binding ELISA) [1]: 0.97
Anti-CD28 Fab signal in the presence of CD28 (phage binding ELISA) [2]: 0.07

B3: Phage-1208 (peptide)
peptide: YCDGHLAEYIQKCL
notes: tested as crude clonal phage supernatant
Anti-CD28 Fab signal in the presence of CD28 [3]: 0.08
Anti-CD28 Fab signal [4]: 1.04

YCSGHVPEYMEKCL [Phage-1234]
Anti-CD28 Fab signal (phage binding ELISA) [5]: 0.94
Anti-CD28 Fab signal in the presence of CD28 (phage binding ELISA) [6]: 0.06

B4: Phage-1229 (peptide)
peptide: YCDGHLPEYMLKCL
modifications: cysteine pairing not given here; also: displayed on phage by fusion to pIII, linker and pIII sequence not given here
notes: as for B1
Anti-CD28 Fab signal (phage binding ELISA) [1]: 0.96
Anti-CD28 Fab signal in the presence of CD28 (phage binding ELISA) [2]: 0.09

B5: Phage-1227 (peptide)
peptide: YCEGHVPEYLVKCL
modifications: cysteine pairing not given here; also: displayed on phage by fusion to pIII, linker and pIII sequence not given here
notes: as for B1
Anti-CD28 Fab signal (phage binding ELISA) [1]: 0.96
Anti-CD28 Fab signal in the presence of CD28 (phage binding ELISA) [2]: 0.06

B6: Phage-1225 (peptide)
peptide: YCAGHAAEYMWKCL
modifications: cysteine pairing not given here; also: displayed on phage by fusion to pIII, linker and pIII sequence not given here
notes: as for B1
Anti-CD28 Fab signal (phage binding ELISA) [1]: 0.97
Anti-CD28 Fab signal in the presence of CD28 (phage binding ELISA) [2]: 0.06

YCDGHHAEYMWKCL [Phage-1238]
Anti-CD28 Fab signal (phage binding ELISA) [5]: 0.93
Anti-CD28 Fab signal in the presence of CD28 (phage binding ELISA) [6]: 0.06

YCEGHTQAYLAKCL [Phage-1239]
Anti-CD28 Fab signal (phage binding ELISA) [5]: 0.93
Anti-CD28 Fab signal in the presence of CD28 (phage binding ELISA) [6]: 0.1

B7: Phage-1210 (peptide)
peptide: YCAGHSQVYMWKCL
notes: as for B3
Anti-CD28 Fab signal in the presence of CD28 [3]: 0.06
Anti-CD28 Fab signal [4]: 1.02

B8: Phage-1224 (peptide)
peptide: YCSGHSWAYIGKCL
modifications: cysteine pairing not given here; also: displayed on phage by fusion to pIII, linker and pIII sequence not given here
notes: as for B1
Anti-CD28 Fab signal (phage binding ELISA) [1]: 0.98
Anti-CD28 Fab signal in the presence of CD28 (phage binding ELISA) [2]: 0.07

B9: Phage-1223 (peptide)
peptide: YCDGHTGMYISKCL
modifications: cysteine pairing not given here; also: displayed on phage by fusion to pIII, linker and pIII sequence not given here
notes: as for B1
Anti-CD28 Fab signal (phage binding ELISA) [1]: 0.98
Anti-CD28 Fab signal in the presence of CD28 (phage binding ELISA) [2]: 0.06

B10: Phage-1214 (peptide)
peptide: YCEGHSSVYLWKCL
notes: as for B3
Anti-CD28 Fab signal in the presence of CD28 [3]: 0.05
Anti-CD28 Fab signal [4]: 1

B11: Phage-1218 (peptide)
peptide: YCEGHIEPYMQKCL
notes: as for B3
Anti-CD28 Fab signal in the presence of CD28 [3]: 0.06
Anti-CD28 Fab signal [4]: 0.99

YCDGHSFEYMAKCL [Phage-1241]
Anti-CD28 Fab signal (phage binding ELISA) [5]: 0.92
Anti-CD28 Fab signal in the presence of CD28 (phage binding ELISA) [6]: 0.06

B12: Phage-1230 (peptide)
peptide: YCAGHLDVYMSKCL
modifications: cysteine pairing not given here; also: displayed on phage by fusion to pIII, linker and pIII sequence not given here
notes: as for B1
Anti-CD28 Fab signal (phage binding ELISA) [1]: 0.96
Anti-CD28 Fab signal in the presence of CD28 (phage binding ELISA) [2]: 0.09

B13: Phage-1220 (peptide)
peptide: YCDGHVGAYMWKCL
notes: as for B3
Anti-CD28 Fab signal in the presence of CD28 [3]: 0.06
Anti-CD28 Fab signal [4]: 0.99

B14: Phage-1219 (peptide)
peptide: YCDGHKPEYMDKCL
notes: as for B3
Anti-CD28 Fab signal in the presence of CD28 [3]: 0.07
Anti-CD28 Fab signal [4]: 0.99

YCDGHSAEYLGKCL [Phage-1242]
Anti-CD28 Fab signal (phage binding ELISA) [5]: 0.92
Anti-CD28 Fab signal in the presence of CD28 (phage binding ELISA) [6]: 0.07

YCDGHIPQYVEKCL [Phage-1235]
Anti-CD28 Fab signal (phage binding ELISA) [5]: 0.94
Anti-CD28 Fab signal in the presence of CD28 (phage binding ELISA) [6]: 0.08

B15: Phage-1215 (peptide)
peptide: YCEGHSWIYIAKCL
notes: as for B3
Anti-CD28 Fab signal in the presence of CD28 [3]: 0.07
Anti-CD28 Fab signal [4]: 1

B16: Phage-1221 (peptide)
peptide: YCEGHSAIYIAKCM
modifications: cysteine pairing not given here; also: displayed on phage by fusion to pIII, linker and pIII sequence not given here
notes: as for B1
Anti-CD28 Fab signal (phage binding ELISA) [1]: 0.98
Anti-CD28 Fab signal in the presence of CD28 (phage binding ELISA) [2]: 0.11

B17: Phage-1217 (peptide)
peptide: YCEGHRPEYMANCL
notes: as for B3
Anti-CD28 Fab signal in the presence of CD28 [3]: 0.06
Anti-CD28 Fab signal [4]: 1

YCAGHAEIYMQKCL [Phage-1236]
Anti-CD28 Fab signal (phage binding ELISA) [5]: 0.93
Anti-CD28 Fab signal in the presence of CD28 (phage binding ELISA) [6]: 0.05

YCVGHSPEYIWKCL [Phage-1243]
Anti-CD28 Fab signal (phage binding ELISA) [5]: 0.92
Anti-CD28 Fab signal in the presence of CD28 (phage binding ELISA) [6]: 0.06

B18: Phage-1212 (peptide)
peptide: YCFGHAPEYLLKCL
notes: as for B3
Anti-CD28 Fab signal in the presence of CD28 [3]: 0.08
Anti-CD28 Fab signal [4]: 1.01

B19: Phage-1213 (peptide)
peptide: YCEGHLREYMLKCL
notes: as for B3
Anti-CD28 Fab signal in the presence of CD28 [3]: 0.07
Anti-CD28 Fab signal [4]: 1.01

B20: Phage-1233 (peptide)
peptide: YCDGHEERYMAKCL
modifications: cysteine pairing not given here; also: displayed on phage by fusion to pIII, linker and pIII sequence not given here
notes: as for B1
Anti-CD28 Fab signal (phage binding ELISA) [1]: 0.94
Anti-CD28 Fab signal in the presence of CD28 (phage binding ELISA) [2]: 0.06

B21: Phage-1216 (peptide)
peptide: YCDGHLEVYMSKCL
notes: as for B3
Anti-CD28 Fab signal in the presence of CD28 [3]: 0.09
Anti-CD28 Fab signal [4]: 1

B22: Phage-1209 (peptide)
peptide: YCAGHSSEYLQKCL
notes: as for B3
Anti-CD28 Fab signal in the presence of CD28 [3]: 0.09
Anti-CD28 Fab signal [4]: 1.03

YCAGHSAQYMWKCL [Phage-1240]
Anti-CD28 Fab signal (phage binding ELISA) [5]: 0.92
Anti-CD28 Fab signal in the presence of CD28 (phage binding ELISA) [6]: 0.07

B23: Phage-1222 (peptide)
peptide: YCFGHFPEYMAKCL
modifications: cysteine pairing not given here; also: displayed on phage by fusion to pIII, linker and pIII sequence not given here
notes: as for B1
Anti-CD28 Fab signal (phage binding ELISA) [1]: 0.98
Anti-CD28 Fab signal in the presence of CD28 (phage binding ELISA) [2]: 0.07

B24: Phage-1211 (peptide)
peptide: YCEGHIEQYMRKCL
notes: as for B3
Anti-CD28 Fab signal in the presence of CD28 [3]: 0.06
Anti-CD28 Fab signal [4]: 1.01

B25: Phage-1232 (peptide)
peptide: YCEGHDIRYMMKCL
modifications: cysteine pairing not given here; also: displayed on phage by fusion to pIII, linker and pIII sequence not given here
notes: as for B1
Anti-CD28 Fab signal (phage binding ELISA) [1]: 0.95
Anti-CD28 Fab signal in the presence of CD28 (phage binding ELISA) [2]: 0.08

YCEGHAHEYMEKCV [Phage-1237]
Anti-CD28 Fab signal (phage binding ELISA) [5]: 0.93
Anti-CD28 Fab signal in the presence of CD28 (phage binding ELISA) [6]: 0.07

B26: Phage-1231 (peptide)
peptide: YCAGHTPEYLDKCL
modifications: cysteine pairing not given here; also: displayed on phage by fusion to pIII, linker and pIII sequence not given here
notes: as for B1
Anti-CD28 Fab signal (phage binding ELISA) [1]: 0.95
Anti-CD28 Fab signal in the presence of CD28 (phage binding ELISA) [2]: 0.06
